Experimental data: CN109776679A

Target: T1, 丝氨酸蛋白酶抑制因子SPINK1的第10-19个氨基酸片段 (synthetic SPINK1 peptide, aa 10-19)
T1 sequence (peptide): SALALLSLSG
Assay: antibody titer; method and coated antigen not stated there, taken to be ELISA on the coated immunogen peptide

B1: 单克隆抗体KZN2 (monoclonal antibody against SPINK1 produced by hybridoma CGMCC No.15800) (antibody, V domains shown)
VH: QVQLQQSGGGLVQPGGAMKLSCTASGFTFSDAWMYWVRQSPEKGLEWVAEIRNKAYNHATYYAESVKGRFTISGDDSKSSVYLQMNSLRAEDTGIYYCTTYDYWGQGTTVTVSS
VL: DIVMTQSPLSLPVSLGDQASISCRSSQSLVHGDGNTYLHWYLQKPGQSPNLLIYKISNRFSGVPDRFSGSGSGTDFTLKISRVEAEDLGVYFCSQNTHVPRTFGGGTKLEIK
抗体最低作用浓度: 0.0825 µg/mL | 效价 (dilution factor (1:x)): 4000
